# Assay results taken from patent publication US8445246B2, “Flavin-binding glucose dehydrogenases” (Kikkoman Corporation, priority 2009, dated 2013).
# B1: Aspergillus niger-derived GOD: commercially available glucose oxidase derived from Aspergillus niger (GOD, product of Biozyme Laboratories) (protein, UniProt P13006 17-605, looked up)
# Glucose oxidase: LPHYIRSNGIEASLLTDPKDVSGRTVDYIIAGGGLTGLTTAARLTENPNISVLVIESGSYESDRGPIIEDLNAYGDIFGSSVDHAYETVELATNNQTALIRSGNGLGGSTLVNGGTWTRPHKAQVDSWETVFGNEGWNWDNVAAYSLQAERARAPNAKQIAAGHYFNASCHGVNGTVHAGPRDTGDDYSPIVKALMSAVEDRGVPTKKDFGCGDPHGVSMFPNTLHEDQVRSDAAREWLLPNYQRPNLQVLTGQYVGKVLLSQNGTTPRAVGVEFGTHKGNTHNVYAKHEVLLAAGSAVSPTILEYSGIGMKSILEPLGIDTVVDLPVGLNLQDQTTATVRSRITSAGAGQGQAAWFATFNETFGDYSEKAHELLNTKLEQWAEEAVARGGFHNTTALLIQYENYRDWIVNHNVAYSELFLDTAGVASFDVWDLLPFTRGYVHILDKDPYLHHFAYDPQYFLNELDLLGQAAATQLARNISNSGAMQTYFAGETIPGDNLAYDADLSAWTEYIPYHFRPNYHGVGTCSMMPKEMGGVVDNAARVYGVQGLRVIDGSIPPTQMSSHVMTVFYAMALKISDAILEDYASMQ
# How the values were obtained:
# [1] = GDH activity measurement (PMS/DCIP, absorbance at 600 nm); format: biochemical; settings: purified enzymes / commercial GOD
# Procedure: Specifically, the activity of the flavin-binding GDH is measured in the following manner, according to the invention. A mixture of 1.79 mL of 100 mM phosphate buffer (pH 7.0), 0.08 mL of a 1.25 M D-glucose solution and 0.01 mL of a 20 mM DCIP solution is warmed at 37° C. for 5 minutes. Next, 0.02 mL of a 20 mM PMS solution and 0.1 mL of an enzyme sample solution are added, and reaction is initiated. The absorbance is measured at the start of the reaction and periodically thereafter, the reduction in absorbance at 600 nm per minute (ΔA600) as the enzyme reaction proceeds is determined, and the flavin-binding GDH activity is calculated by the following formula. […]
# The value of 2.0 in the formula is the liquid volume (mL) of reaction reagent+enzyme reagent, 16.3 is the millimolar molecular absorption coefficient (cm^2/μmol) under the activity measuring conditions, 0.1 is the liquid volume (mL) of the enzyme solution, 1.0 is the optical path length (cm) of the cell, ΔA600blank is the reduction in absorbance at 600 nm per minute, when the reaction is initiated by addition of 10 mM acetate buffer instead of the enzyme sample solution, and df represents the degree of dilution.
# Each solution was combined by the procedure described below, and the absorbance was measured to determine the GDH activity of the crude enzyme solution. […]
# [2] = GOD activity measurement (4-AA/TOOS/POD, absorbance at 555 nm); format: biochemical; settings: 131 mM D-glucose, 37° C.
# Procedure: The GDH activity was measured according to the method of Example 1, and GOD activity was measured by the following method using 4-aminoantipyrine (4-AA) and N-ethyl-N-(2-hydroxy-3-sulfopropyl)-3-methylaniline (TOOS). After mixing 30.0 mL of 100 mM phosphate buffer (pH 7.0), 6.0 mL of an 833 mM D-glucose solution, 0.3 mL of a 25 mM 4-AA solution, 0.3 mL of a 40 mM TOOS solution and 0.3 mL of a 500 U/mL, POD solution, 3.0 mL of the mixture was transferred to a test tube and warmed at 37° C. for 5 minutes, after which 0.1 mL of enzyme sample solution was added and reaction was initiated. The increase in absorbance at 555 nm per minute (ΔA555) was measured as the enzyme reaction proceeded, and the GOD activity was calculated by the formula shown below. […]
# The value of 3.1 in the formula is the liquid volume (mL) of reaction reagents+enzyme reagent, 32.8 is the millimolar molecular absorption coefficient (cm^2/μmol) under the activity measuring conditions, 0.5 is the number of molecules of quinoneimine dye produced when 1 molecule of H2O2 is reduced, 0.1 is the liquid volume (mL) of the enzyme solution, 1.0 is the optical path length (cm) of the cell, ΔA555blank is the increase in absorbance at 555 nm per minute, when the reaction is initiated by addition of 10 mM acetate buffer instead of the enzyme sample solution, and df represents the degree of dilution.
molecule,measurement,setting,value
B1,GDH activity,[1],3.50 U/mL
same,GOD activity,[2],9.38 U/mL
